The values that follow are results of earlier work, collected in PMC7094366.

In this data set the target is SARS-CoV 3C-like proteinase (Severe acute respiratory syndrome coronavirus) (UniProt P0C6X7).

Take “SARS-CoV 3C-like proteinase (from UniProt P0C6X7)”: the Kd (in general, the free concentration of one partner at which half of the binding sites on the other are occupied at equilibrium, for simple one-to-one binding) was 100 µM.
